Measurements taken from PMC7336453, “Inhibition of multiple defense responsive pathways by CaWRKY70 transcription factor promotes susceptibility in chickpea under Fusarium oxysporum stress condition”.

T1: His6-CaWRKY40 (Cicer arietinum, UniProt A0A1S2YMJ3 1-315)
T1 sequence: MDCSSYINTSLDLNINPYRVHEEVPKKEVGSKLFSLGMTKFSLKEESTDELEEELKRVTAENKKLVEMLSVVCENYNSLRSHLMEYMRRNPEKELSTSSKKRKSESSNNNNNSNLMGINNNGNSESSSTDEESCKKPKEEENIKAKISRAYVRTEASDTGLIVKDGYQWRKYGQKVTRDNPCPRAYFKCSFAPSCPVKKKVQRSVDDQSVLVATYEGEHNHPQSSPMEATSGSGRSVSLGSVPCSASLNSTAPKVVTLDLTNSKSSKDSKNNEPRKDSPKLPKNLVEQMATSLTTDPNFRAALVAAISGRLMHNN

B1: pCaMPK9 W-box 2 (dsDNA)
DNA 1: TTAAAATTATTTGTCATCTAAAAGAATCA
DNA 2: TGATTCTTTTAGATGACAAATAATTTTAA
B2: pCaMPK9 W-box 1 (dsDNA)
DNA 1: ATTGGTTCAGTTTTGTAGTCAACAAAATCT
DNA 2: AGATTTTGTTGACTACAAAACTGAACCAAT

Tests used:
His6-CaWRKY40 [1] = biological target: T1, His6-CaWRKY40; assay: EMSA; 200 ng protein; competed by 50 molar excess cold probe; 20 mM HEPES pH 7.5, 100 mM KCl, 0.2 mM EDTA, 1 mM DTT, 2 mM MgCl2, 1 ug poly dI-dC; 10 ng probe, 100-200 ng protein; 30 min room temperature; 5% PAGE 0.5x TBE at 4 C; settings: protein: recombinant; tags: 6xHis (pET28a); label: labelled (32P)
His6-CaWRKY40 [2] = biological target: T1, His6-CaWRKY40; assay: EMSA; 200 ng protein; competed by 20 molar excess cold probe; 20 mM HEPES pH 7.5, 100 mM KCl, 0.2 mM EDTA, 1 mM DTT, 2 mM MgCl2, 1 ug poly dI-dC; 10 ng probe, 100-200 ng protein; 30 min room temperature; 5% PAGE 0.5x TBE at 4 C; settings: protein: recombinant; tags: 6xHis (pET28a); label: labelled (32P)

Row | Binder | binding result (His6-CaWRKY40 [1]) | binding result (His6-CaWRKY40 [2])
1 | B1 | binds | –
2 | B2 | – | binds
